This is an account of results in patent US7807387B2, “Biological agent that causes IL-6 receptor release” (Meyer Pharmaceuticals LLC, priority 2003, dated 2010).

One data set deals with IL-6 Receptor (Homo sapiens, UniProt P08887). The experiment in a line: FRET peptide cleavage assay, IL-6 receptor peptide. The note with it: Zn++ 0.1 mM, Ca++ 2 mM, corrected for EDTA, 37° C. for 3 hours. It is filed as biochemical. As to the method: (§1) Cytokine-specific proteolytic activity can rapidly be quantified by Fluorescence Resonance Energy Transfer (FRET). Peptides having the amino acid sequence of the TNF Receptor or other protein substrates are labeled at opposite ends with a fluorescence emitter and a fluorescence quencher. The peptide is then incubated with a source of receptor cleaving enzyme, and fluorescence is measured. The quenching group normally absorbs fluorescence from the emitter. But enzymatic cleavage of the peptide decouples the quenching group, and fluorescence emission increases proportionally.
(§2) The peptides used as substrates in the cleavage assay were taken from the known sites of proteolytic cleavage of the whole protein. The peptides were labeled with the fluorescence emitter (Edans-●) at the C-terminal, and the quenching hapten (Dabcyl-▴) at the N-terminal.
(§3) The assay is conducted in the presence of the metal cations Zn^++ (0.1 mM) and Ca^++ (2 mM), and corrected for cleavage in the presence of EDTA (20 mM). Dependence on divalent cations confirms that the enzyme activity measured in this assay is a metalloprotease. The assay mixture also contains a cocktail of protease inhibitors and bovine albumin. Cleavage is measured as the net change in fluorescence emission after incubating the enzyme with the peptide at 37° C. for 3 hours. […]

Data set [1] concerns human IL-1 type 1 and type 2 receptors. The experiment in a line: FRET peptide cleavage assay, IL-1 receptor peptides. It is filed as biochemical. The protocol: as §1, §2, §3
In the next data set the target is T1, p75 TNF Receptor (Homo sapiens, UniProt P20333).
T1 construct: endogenous in cells; host or cells: THP-1
T1 sequence (P20333 23-461): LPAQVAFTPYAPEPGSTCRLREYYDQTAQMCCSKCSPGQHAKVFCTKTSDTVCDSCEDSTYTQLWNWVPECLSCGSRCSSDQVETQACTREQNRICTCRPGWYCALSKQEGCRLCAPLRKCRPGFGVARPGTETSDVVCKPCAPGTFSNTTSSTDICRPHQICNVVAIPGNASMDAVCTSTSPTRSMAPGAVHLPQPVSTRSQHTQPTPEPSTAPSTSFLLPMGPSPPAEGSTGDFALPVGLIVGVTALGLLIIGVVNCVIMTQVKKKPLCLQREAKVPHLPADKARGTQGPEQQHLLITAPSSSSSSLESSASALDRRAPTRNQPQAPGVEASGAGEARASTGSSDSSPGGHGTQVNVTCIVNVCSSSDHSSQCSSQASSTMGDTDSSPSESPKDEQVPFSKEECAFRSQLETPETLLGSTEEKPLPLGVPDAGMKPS
The data set can be described thus: Cleavage of cell surface p75 TNF receptor on THP-1 cells. It is filed as cell-based. The note with it: 45 minutes at 37° C. The protocol:
This cell line expresses both the p55 TNF receptor and the p75 TNF receptor. After incubating for 45 minutes at 37° C., the cells were washed, immunostained for cell surface receptor, and counted by flow cytometry.

The test system of a further data set is LPS-induced septic shock. The experiment in a line: LPS/galactosamine-induced septic shock model. It counts as in vivo, Balb/c mice. The protocol:
A classic model for determining effectiveness of agents against cytokine-mediated inflammation is endotoxin-induced septic shock (Morrison et al., J Infect Dis 162:1063, 1990).
The septic shock experiment was conducted as follows. Female Balb/c mice were randomized by weight into 6 treatment groups. Sepsis was induced by injecting 10 μg LPS and 7 mg galactosamine in the lateral or dorsal caudal vein. Some of the groups were pretreated with 50,000 FU of MP8 simultaneously or 3 hours in advance of the LPS challenge to determine whether there was a protective effect.
FIG. 8 is a Kaplan-Meier survival curve, showing the mortality in each of the treatment groups in the study. Without any treatment or challenge, there is no effect on the animals, and the line stays at the top. Life-compromising challenge causes the line to fall to the bottom of the graph in a step-wise fashion as each animal succumbs. Treatment that is protective against the challenge maintains the line near the top of the graph.
The enzyme was administered in a volume of 110 μL at one hour before the LPS challenge.
Stability of the clinical effect of MP8 was determined in the septic shock model. Female Balb/c mice were injected with 300,000 FU of MP8 that had been stored for 4 days at −70° C., or 7 days at 4° C. One hour later, the mice were challenged with 10 μg LPS and 7 mg galactosamine as before.
In this example, durability of receptor cleavage in vivo was determined by treating animals subcutaneously up to three days in advance with 300,000 FU of MP8. The mice were then challenged with […] LPS and 7 mg galactosamine in the usual fashion.
Sepsis was induced in Balb/c mice by administering 10 μg LPS and […] galactosamine, as in Example 3. Randomized groups were pretreated with up to 40 μg MP8-FL2 one hours in advance of the LPS challenge.

A short description of data set [2]: Clearance of MP8 protein from the circulation by dot-blot analysis. It is filed as in vivo. The note with it: mice.
Data set [3] relates to collagen-induced arthritis. The data set can be described thus: Collagen-induced arthritis, treatment of established disease. It is filed as in vivo. The protocol: Collagen-induced arthritis is a standard model for evaluating potential therapeutic agents for rheumatoid arthritis (Courtenay et al., Nature 283:666, 1980; Williams et al., Proc Natl Acad Sci USA 89:9784, 1992; Gerlag et al., J Immunol 165:1652, 2000). Arthritis was induced in 7-9 week old female DBA/1 LacJ mice by immunization with collagen. On day 0, the mice were injected at the base of the tail with 100 μg bovine type II collagen in complete Freund's adjuvant. On day 7, mice were boosted with an intraperitoneal injection of 100 μg collagen. To enhance and synchronize synovitis, the mice were injected subcutaneously on day 14 with 100 μg of lipopolysaccharide (LPS). Joint swelling was monitored in a blinded fashion by measuring the diameter in all 4 paws and both ankles using a constant pressure gauge. Arthritis Index was also determined on the following scale, and summed for all extremities. 0≡normal; 1≡one digit swollen; 2≡more than one digit swollen; 3≡joint distortion; 4≡ankylosis. The arthritis experiments were conducted under contract by Calvert Preclinical Services, Inc., Olyphant Pa.
Mice were immunized with collagen on days 0, and 7, and then boosted with LPS on day 14. Treatment with MP8 was initiated on day 22 when arthritis was well established. At that time, animals with arthritis were randomized into three groups, and unaffected animals were excluded. The three affected groups were then treated for 18 consecutive days with saline control, or with MP8 at either of two different doses.

B1: MP8: polypeptide having the sequence of SEQ. ID NO:41 (usually with a HIS tag); cytokine receptor releasing protein expressed in E. coli (protein, listed as Homo sapiens)
chain: WIQRIRHEGNSTVYEWRTGTEPSVVERPHLEELPEQVAEDAIDWGDFGVEAVSEGTDSGISAEAAGIDWGIFPESDSKDPGGDGIDWGDDAVALQITVLEAGTQAPEGVARGPDALTLLEYTETRNQFLDELMELEIFLAQRAVELSEEADVLSVSQFQLAPAILQGQTKEKMVTMVSVLEDLIGKLTSLQLQHLFMILASPRYVDRVTEFLQQKLKQSQLLALKKELMVQKQQEALEEQAALEPKLDLLLEKTKELQKLIEADISKRYSGRPVNLMGTSL
modifications: HIS tag
notes: ID NO:41 (usually with a HIS tag); cytokine receptor releasing protein expressed in E. coli
With B1, in the data set with IL-6 Receptor, the “cleavage of IL-6 receptor peptide” value was “high activity”. Further, the “cleavage of IL-1 receptor” value in data set [1] was “cleaves”. Also, the “cleavage of p75 TNF receptor on the surface of cells” value in the data set with p75 TNF Receptor is “cleaves”. Also, the “protection against LPS-induced septic shock” value with LPS-induced septic shock (50,000 FU, simultaneously with LPS challenge or 3 hours in advance) is “fully protective”; with LPS-induced septic shock (300,000 FU, one hour before LPS challenge), “completely protective”; with LPS-induced septic shock (single dose of 30,000 FU, one hour before LPS challenge) it was “able to protect a proportion of the challenged subjects”. In addition, the “clinical efficacy in septic shock model after storage” value in the data set with LPS-induced septic shock (300,000 FU stored 4 days at −70° C. or 7 days at 4° C., one hour before challenge) is “can be frozen without causing a loss in clinical efficacy”. Further, in the data set with LPS-induced septic shock (300,000 FU subcutaneously up to three days in advance), the “protection against septic shock when administered days in advance” value is reported as “able to protect most mice up to 3 days after administration”. Also, the “first clearance half-time from the circulation” value in data set [2] is about 39 h. For the same molecule, in data set [3] (MP8 treated groups), the toxicity entry is reported as “No toxicity was detected”. Moreover, the “swelling in the affected joints” value in data set [3] (daily for 18 days from day 22, two doses, p<0.001 vs control) was “highly significant reduction in swelling”. Also, the “severity of inflammatory synovitis by histopathology” value in data set [3] (higher dose, end of experiment) is reported as “lower severity of inflammatory synovitis”. Moreover, the “level of antibodies to type II collagen in serum” value in data set [3] (low or high dose, ELISA, p<0.02) is “almost half the control”.
